The values that follow come from US20240400703A1 (Genmab, published 2024).

Where “and” joins values, the source holds several entries; their conditions need not be identical. Identical values can stand only once.

Usually EC50 (read off the curve) stands for the concentration needed to bring the measured effect to its halfway point. As usually defined, the EC50 is the concentration that produces a half-maximal response. The Kd is a measure of binding affinity in units of concentration. The term koff denotes the rate constant with which the complex falls apart. The kon is the rate constant with which the complex forms.

Test [1] deals with T1, cynomolgus monkey OX40 expressed on HEK293F cells (cynomolgus monkey (Macaca fascicularis), UniProt P43489 29-277 (human entry)).
T1 construct: full-length entry
T1 chain: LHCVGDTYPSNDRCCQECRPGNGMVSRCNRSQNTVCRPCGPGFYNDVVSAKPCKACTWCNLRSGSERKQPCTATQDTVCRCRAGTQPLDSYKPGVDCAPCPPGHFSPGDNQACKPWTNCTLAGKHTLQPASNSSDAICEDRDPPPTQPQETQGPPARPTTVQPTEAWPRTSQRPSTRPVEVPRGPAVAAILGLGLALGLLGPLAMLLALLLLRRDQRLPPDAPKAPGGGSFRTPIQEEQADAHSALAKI
The test can be described thus: flow cytometry, OX40-transfected HEK293F cells, gMFI (PE). How it is done:
(§1) Transfected cells were seeded in 96-well plates (30,000 cells/well; ThermoFisher, cat. no. 163320) for sequential incubations, with washing steps in between using fluorescence-activated cell sorting (FACS) buffer 1 (phosphate buffered saline [PBS; Lonza, cat. no. BE17-517Q] supplemented with 0.1% bovine serum albumin [BSA; Roche, cat. no. 10735086001] and 0.02% sodium azide [NaN₃; Bio-World, cat. no. 41920044-3]) supplemented with 2 mM ethylenediaminetetraacetic acid (EDTA; Sigma-Aldrich, cat. no. 03690). […] Cells were then washed using EDTA-supplemented FACS buffer 1, resuspended in a 30 μL solution of viability marker ToPro-3 (Invitrogen, cat. no. T3605, diluted 1:10,000) in EDTA-supplemented FACS buffer 1, and subsequently analyzed on an iQue® 3 flow cytometer (Satorius). Data were analyzed using FlowJo software and were visualized using GraphPad Prism.
On the technique in general: In flow cytometry, cells or beads pass a laser one at a time.

The target of test [2] is T2, human OX40 expressed on cells (human, UniProt P43489 29-277).
T2 construct: also called CD134; TNFRSF4
T2 sequence: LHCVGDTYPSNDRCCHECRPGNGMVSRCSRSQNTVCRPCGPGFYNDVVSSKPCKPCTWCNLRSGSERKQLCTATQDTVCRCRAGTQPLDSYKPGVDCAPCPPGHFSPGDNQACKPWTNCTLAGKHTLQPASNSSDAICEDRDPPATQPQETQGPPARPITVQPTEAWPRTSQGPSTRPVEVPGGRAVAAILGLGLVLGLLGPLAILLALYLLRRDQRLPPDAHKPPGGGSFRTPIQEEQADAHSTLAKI
The test is described as above. How it is done: as §1

Test [3] deals with T2, human OX40 expressed on cells. As to the kind of experiment: cell-based or functional assay.
The target is the same in test [4]. As to the kind of experiment: flow cytometry, activated human CD4+ T cells, mean of 3 donors; CD4+ T cells.
The target is the same in test [5]. As to the kind of experiment: flow cytometry, human T cells activated 72 h with anti-CD3/CD28 beads.
The target of test [6] is T3, recombinant cynomolgus monkey OX40 (Acro Biosystems, cat. no. OX0-C5220) (cynomolgus monkey (Macaca fascicularis), UniProt P43489 29-214 (human entry)).
T3 construct: bought protein; also called Cyno OX40
T3 chain: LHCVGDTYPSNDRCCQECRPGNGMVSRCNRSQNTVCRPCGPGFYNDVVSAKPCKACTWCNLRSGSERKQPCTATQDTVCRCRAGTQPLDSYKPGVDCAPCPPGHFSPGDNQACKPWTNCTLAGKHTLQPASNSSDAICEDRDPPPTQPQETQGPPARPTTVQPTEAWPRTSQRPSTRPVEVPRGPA
The test can be described thus: BLI, Ab on AHC sensor, OX40 analyte; * binding observed, less reliable fit. How it is done:
Experiments were carried out while shaking at 1,000 RPM at 30° C. […] Next, AHC sensors were loaded with antibody (1 μg/mL in Sample Diluent) for 600 s. After a baseline measurement in sample diluent (100 s), the association (200 s) and dissociation (1,000 s) of human OX40 (Acro Biosystems, cat. no. OX0-H5224), and cynomolgus monkey OX40 (Acro Biosystems, cat. no. OX0-C5220) was determined using a concentration range of 0.78 to 800 nM with 2-fold dilution steps.
The theoretical molecular masses of the antigens based on the amino acid sequences were used for calculations. For each antibody, a reference sensor was used which was incubated with Sample Diluent instead of antigen. AHC sensors were regenerated by exposure to 10 mM glycine buffer pH 1.7 for 5 s, followed by neutralization in Sample Diluent for 5 s; both steps were repeated twice. Subsequently sensors were loaded again with antibody for the next cycle of kinetic measurements.
Data were acquired using Data Acquisition Software v12.0 (Sartorius) and analyzed with Data Analysis Software v12.0 (Sartorius). Data traces were corrected per antibody by subtraction of the reference sensor. The Y-axis was aligned to the last 10 s of the baseline and Interstep Correction alignment to dissociation as well as Savitzky-Golay filtering were applied. Data traces with a response <0.05 nm were excluded from analysis. […] The data was fitted with the 1:1 model using a window of interest for the association of 200 s and dissociation times set at 50 s, 200 s and 1,000 s. The dissociation time was chosen based upon R² value, visual inspection of the curve and at least 5% signal decay during the dissociation step.
Background: Biolayer interferometry detects binding as a change in optical thickness at a sensor tip.

B1: IgG1-CD134-003-HC6LC2-P329R-E345R (antibody)
heavy: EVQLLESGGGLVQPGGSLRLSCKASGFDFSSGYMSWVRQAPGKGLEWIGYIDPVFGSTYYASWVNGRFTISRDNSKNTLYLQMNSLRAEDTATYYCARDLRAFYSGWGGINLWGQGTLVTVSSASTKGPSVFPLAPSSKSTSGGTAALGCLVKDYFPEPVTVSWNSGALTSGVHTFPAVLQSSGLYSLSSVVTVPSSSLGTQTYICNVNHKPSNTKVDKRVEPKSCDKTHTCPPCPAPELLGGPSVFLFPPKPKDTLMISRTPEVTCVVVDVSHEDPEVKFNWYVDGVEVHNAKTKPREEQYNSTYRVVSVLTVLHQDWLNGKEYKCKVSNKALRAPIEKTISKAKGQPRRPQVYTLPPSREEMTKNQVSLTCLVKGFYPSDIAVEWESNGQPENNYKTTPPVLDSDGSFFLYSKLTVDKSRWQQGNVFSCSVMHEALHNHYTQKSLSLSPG
light: AAVLTQSPSSLSASVGDRVTITCQSSQIVVNNNFLSWYQQKPGKAPKLLIYDASNLASGVPDRFSGSGSGTDFTFTISSLQPEDIATYYCLGGYDDDAENAFGGGTKVEIKRTVAAPSVFIFPPSDEQLKSGTASVVCLLNNFYPREAKVQWKVDNALQSGNSQESVTEQDSKDSTYSLSSTLTLSKADYEKHKVYACEVTHQGLSSPVTKSFNRGEC
notes: humanized; human IgG1 with P329R and E345R (Eu numbering), kappa; also called IgG1-CD134-003-HC6LC2-RR
Turning to B1, the “EC50 (read off the curve)” value in test [1] is ~0.05 µg/mL. In test [2], the “EC50 (read off the curve)” value was ~0.05 µg/mL. In addition, in test [3], the “Average EC50 CD4+ T-cell proliferation (17 donors)” value is 0.013 µg/ml and 0.085 nM; the “Average EC50 CD8+ T-cell proliferation (17 donors)” value was 0.017 µg/ml and 0.115 nM; the “EC50 CD4+ T-cell proliferation, donor 1” value was 0.009 µg/ml and 0.057 nM; the “EC50 CD4+ T-cell proliferation, donor 2” value was 0.024 µg/ml and 0.159 nM. Further, in test [3], the “EC50 CD4+ T-cell proliferation, donor 3” value was 0.012 µg/ml and 0.084 nM; the “EC50 CD4+ T-cell proliferation, donor 4” value was 0.007 µg/ml and 0.048 nM; the “EC50 CD4+ T-cell proliferation, donor 5” value was 0.008 µg/ml and 0.053 nM; the “EC50 CD4+ T-cell proliferation, donor 6” value is 0.006 µg/ml and 0.038 nM. In test [3], the “EC50 CD4+ T-cell proliferation, donor 7” value is 0.019 µg/ml and 0.129 nM; the “EC50 CD4+ T-cell proliferation, donor 8” value is 0.016 µg/ml and 0.107 nM; the “EC50 CD4+ T-cell proliferation, donor 9” value was 0.007 µg/ml and 0.048 nM; the “EC50 CD4+ T-cell proliferation, donor 10” value is 0.017 µg/ml and 0.111 nM. In test [3], the “EC50 CD4+ T-cell proliferation, donor 11” value was 0.01 µg/ml and 0.067 nM; the “EC50 CD4+ T-cell proliferation, donor 12” value is 0.009 µg/ml and 0.06 nM; the “EC50 CD4+ T-cell proliferation, donor 13” value is 0.019 µg/ml and 0.125 nM; the “EC50 CD4+ T-cell proliferation, donor 14” value is 0.008 µg/ml and 0.052 nM. Moreover, in test [3], the “EC50 CD4+ T-cell proliferation, donor 15” value is 0.02 µg/ml and 0.132 nM; the “EC50 CD4+ T-cell proliferation, donor 16” value is 0.008 µg/ml and 0.053 nM; the “EC50 CD4+ T-cell proliferation, donor 17” value was 0.018 µg/ml and 0.119 nM; the “EC50 CD8+ T-cell proliferation, donor 1” value is 0.028 µg/ml and 0.19 nM. In addition, in test [3], the “EC50 CD8+ T-cell proliferation, donor 2” value is 0.029 µg/ml and 0.195 nM; the “EC50 CD8+ T-cell proliferation, donor 3” value was 0.013 µg/ml and 0.087 nM; the “EC50 CD8+ T-cell proliferation, donor 4” value was 0.007 µg/ml and 0.048 nM; the “EC50 CD8+ T-cell proliferation, donor 5” value was 0.009 µg/ml and 0.058 nM. Besides, in test [3], the “EC50 CD8+ T-cell proliferation, donor 6” value was 0.008 µg/ml and 0.051 nM; the “EC50 CD8+ T-cell proliferation, donor 7” value is 0.041 µg/ml and 0.273 nM; the “EC50 CD8+ T-cell proliferation, donor 8” value is 0.005 µg/ml and 0.033 nM; the “EC50 CD8+ T-cell proliferation, donor 9” value is 0.008 µg/ml and 0.052 nM. Also, in test [3], the “EC50 CD8+ T-cell proliferation, donor 10” value is 0.016 µg/ml and 0.109 nM; the “EC50 CD8+ T-cell proliferation, donor 11” value is 0.014 µg/ml and 0.095 nM; the “EC50 CD8+ T-cell proliferation, donor 12” value is 0.009 µg/ml and 0.058 nM; the “EC50 CD8+ T-cell proliferation, donor 13” value is 0.052 µg/ml and 0.346 nM. Besides, in test [3], the “EC50 CD8+ T-cell proliferation, donor 14” value was 0.008 µg/ml and 0.054 nM; the “EC50 CD8+ T-cell proliferation, donor 15” value was 0.018 µg/ml and 0.117 nM; the “EC50 CD8+ T-cell proliferation, donor 16” value is 0.011 µg/ml and 0.074 nM; the “EC50 CD8+ T-cell proliferation, donor 17” value is 0.017 µg/ml and 0.116 nM. In test [4], this molecule displayed an EC50 of 0.14 nM. Besides, the “EC50 (read off the curve)” value in test [5] was ~0.02 µg/mL.

B2: IgG1-CD134-012 (antibody)
heavy: not shown
light: DIVMTQTPASVEAAVGGTVTIKCQASENIYSSLAWYQQKPGQPPKLLIYRTSTLASGVPSRFKGSGSGTQFTLTISDLESDDAATYYCQSYYHNSGGGYDYGFGGGTEVVAKRTVAAPSVFIFPPSDEQLKSGTASVVCLLNNFYPREAKVQWKVDNALQSGNSQESVTEQDSKDSTYSLSSTLTLSKADYEKHKVYACEVTHQGLSSPVTKSFNRGEC
notes: rabbit-human chimeric IgG1
For the molecule B2, in test [6], the Kd amounted to 180 nM, the koff is 0.018 s⁻¹ and the kon came to 98000 M⁻¹ s⁻¹.
